The target of experiment [1] is human Nav1.7 (hNav1.7), wild type (human) (UniProt Q15858).
The target of experiment [2] is human Nav1.9 with C-terminal GFP (hNav1.9-GFP), wild type (human) (UniProt Q9UI33).
For experiment [3], the target named is Nav1.8/1.7 DII s3b-s4 chimaera (reverse chimaera: DII s3b-s4 of Nav1.7 built into Nav1.8) (rat | human).
Experiment [4] deals with hNav1.7 E818R (human) (UniProt Q15858).

“HpTx1 (spider peptide toxin; rational nomenclature κ-sparatoxin-Hv1a) (from UniProt P58425 1-33)” yielded a dose-dependent inhibition of hNav1.7 currents in HEK293T cells (whole-cell patch clamp), IC50 in experiment [1] of 510 nM. In experiment [2], this substance had an inhibition of the fast inactivation of hNav1.9 currents in ND7/23 cells, dose-response (whole-cell patch clamp), EC50 of 470 nM. This substance returned a dose-dependent inhibition of the currents of the reverse chimaeric channel by HpTx1 (whole-cell patch clamp), IC50 in experiment [3] of 3000 nM. In experiment [4], this substance showed a fold reduction in HpTx1 activity (IC50 of current inhibition) against WT hNav1.7 (whole-cell patch clamp) of 20 fold.

Source of the values: article PMC7210961.
